Tested on: peptide library, one residue held at a place counted from the S/T acceptor
Experiment: relative phosphorylation of the sub-library (ratio to the mean residue at this position); higher = residue favoured
Conditions: human
Summary of the method: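 In 384-well plates, purified recombinant kinases (human or orthologue constructs) were incubated for 90 min under kinase-specific conditions with 50 μM biotinylated degenerate peptide sub-libraries and 50 μM ATP spiked with γ-32P-ATP. Each sub-library fixed a single residue at one position around a central Ser/Thr. Relative sub-library phosphorylation, measured by phosphorimaging and densitometry of streptavidin membrane spots, is given as a ratio to the mean residue at that position.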

Chain of DAPK1, construct: aa1-363 (P53355 1-363, looked up): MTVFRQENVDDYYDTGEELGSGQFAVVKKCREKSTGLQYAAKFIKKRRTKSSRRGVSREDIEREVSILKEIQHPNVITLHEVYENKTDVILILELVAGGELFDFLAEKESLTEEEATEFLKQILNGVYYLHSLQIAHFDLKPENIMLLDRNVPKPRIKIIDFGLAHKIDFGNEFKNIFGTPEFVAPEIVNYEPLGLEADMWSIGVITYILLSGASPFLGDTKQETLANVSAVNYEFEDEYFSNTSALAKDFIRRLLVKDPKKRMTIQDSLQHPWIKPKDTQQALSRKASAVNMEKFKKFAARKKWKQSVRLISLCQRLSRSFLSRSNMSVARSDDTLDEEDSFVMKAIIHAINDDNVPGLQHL

DAPK1, construct: aa1-363 (from UniProt P53355)
relative phosphorylation
Conditions	at +1	at +2	at +3	at +4	at -1	at -2	at -3	at -4	at -5
A fixed	0.752	0.793	0.813	0.817	0.743	1.27	0.626	0.975	0.91
D fixed	1.81	0.767	0.98	0.853	0.83	0.333	0.336	0.665	0.58
E fixed	1.76	0.953	0.979	0.857	0.63	0.347	0.374	0.82	0.622
F fixed	0.867	0.998	0.999	1.13	0.771	0.4	0.45	0.844	0.773
G fixed	1.06	0.651	0.978	0.935	0.847	0.662	0.62	0.937	1.03
H fixed	0.714	0.936	1	1.45	1.24	0.987	0.754	1	1.05
I fixed	0.877	1.05	1.95	0.913	0.701	0.308	0.418	0.871	0.955
K fixed	0.476	0.717	0.665	0.72	1.35	1.38	2.1	1.63	1.67
L fixed	0.792	1.92	1.39	0.777	1.18	0.354	0.385	0.796	1.02
M fixed	1.12	1.71	1.04	1.01	1.14	0.387	0.421	0.959	0.954
N fixed	1.47	0.871	0.818	0.985	1.4	0.672	0.483	0.93	0.842
P fixed	0.353	0.724	0.693	0.994	1.04	0.338	0.558	0.677	0.756
Q fixed	2.1	1.03	0.767	0.816	1.06	0.742	0.632	1.03	0.828
R fixed	0.659	1.06	0.832	0.912	1.64	7.29	7.46	2.31	2.36
V fixed	0.821	0.912	1.3	0.792	0.691	0.345	0.297	0.77	0.722
W fixed	0.698	0.827	0.856	1.7	0.695	0.732	0.592	0.856	0.73
Y fixed	0.68	1.08	0.936	1.33	1.05	0.46	0.502	0.928	1.2
pThr fixed	3.07	1.42	1.26	1.87	0.889	0.618	0.741	0.996	1.17
pTyr fixed	1.87	1.41	2.43	1.56	1.33	0.71	0.721	0.94	1.15

Reference: the supplement of paper PMC9876800
